Among the data in paper PMC8076793 are stoichiometry N values, retold here.

For the assay, the target named is DexA (bacteriophage T4). As to the kind of experiment: SEC; Äkta pure, HiLoad 16/600 Superdex 75 pg (Cef, MRH, Pin, DexA) or Superdex 200 pg (Y04L, Gp57B), in the respective dialysis buffers (Supplementary Table 3). On the technique in general: SEC sorts molecules by how far they enter the pores of the column.

DexA, sequence (P04536 whole entry): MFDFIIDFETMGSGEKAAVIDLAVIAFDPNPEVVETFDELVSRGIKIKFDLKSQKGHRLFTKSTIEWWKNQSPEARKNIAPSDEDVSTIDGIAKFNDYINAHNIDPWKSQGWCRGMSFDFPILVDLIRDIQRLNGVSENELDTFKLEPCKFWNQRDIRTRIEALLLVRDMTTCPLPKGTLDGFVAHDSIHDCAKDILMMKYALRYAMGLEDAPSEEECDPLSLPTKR

A word on the stoichiometry N: it is the number of molecules, sites or subunits per partner or assembly. DexA (enzyme) came in with a stoichiometry N of 2.
